Assay results reported in publication PMC4104028 (2014).

B1: GFP-WIPI2b [not stated] / FLAG-Atg16L1 full-length (FL) [mouse] (parent complex)
chain 1: MNLASQSGEAGAGQLLFANFNQDNTSLAVGSKSGYKFFSLSSVDKLEQIYECTDTEDVCIVERLFSSSLVAIVSLKAPRKLKVCHFKKGTEICNYSYSNTILAVKLNRQRLIVCLEESLYIHNIRDMKVLHTIRETPPNPAGLCALSINNDNCYLAYPGSATIGEVQVFDTINLRAANMIPAHDSPLAALAFDASGTKLATASEKGTVIRVFSIPEGQKLFEFRRGVKRCVSICSLAFSMDGMFLSASSNTETVHIFKLETVKEKPPEEPTTWTGYFGKVLMASTSYLPSQVTEMFNQGRAFATVRLPFCGHKNICSLATIQKIPRLLVGAADGYLYMYNLDPQEGGECALMKQHRLDGSLETTNEILDSASHDCPLVTQTYGAAAGKGTYVPSSPTRLAYTDDLGAVGGACLEDEASALRLDEDSEHPPMILRTD
chain 2: MSSGLRAADFPRWKRHIAEELRRRDRLQRQAFEEIILQYTKLLEKSDLHSVLTQKLQAEKHDMPNRHEISPGHDGAWNDSQLQEMAQLRIKHQEELTELHKKRGELAQLVIDLNNQMQQKDKEIQMNEAKISEYLQTISDLETNCLDLRTKLQDLEVANQTLKDEYDALQITFTALEEKLRKTTEENQELVTRWMAEKAQEANRLNAENEKDSRRRQARLQKELAEAAKEPLPVEQDDDIEVIVDETSDHTEETSPVRAVSRAATKRLSQPAGGLLDSITNIFGLSESPLLGHHSSDAARRRSVSSIPVPQDIMDTHPASGKDVRVPTTASYVFDAHDGEVNAVQFSPGSRLLATGGMDRRVKLWEAFGDKCEFKGSLSGSNAGITSIEFDSAGAYLLAASNDFASRIWTVDDYRLRHTLTGHSGKVLSAKFLLDNARIVSGSHDRTLKLWDLRSKVCIKTVFAGSSCNDIVCTEQCVMSGHFDKKIRFWDIRSESVVREMELLGKITALDLNPERTELLSCSRDDLLKVIDLRTNAVKQTFSAPGFKCGSDWTRVVFSPDGSYVAAGSAEGSLYVWSVLTGKVEKVLSKQHSSSINAVAWAPSGLHVVSVDKGSRAVLWAQP
B2: FLAG-Atg16L1 full-length (FL) [mouse] / endogenous FIP200 (HEK293A) [human (endogenous in HEK293A)] (parent complex)
chain 1: B1 chain 2
chain 2: MKLYVFLVNTGTTLTFDTELTVQTVADLKHAIQSKYKIAIQHQVLVVNGGECMAADRRVCTYSAGTDTNPIFLFNKEMILCDRPPAIPKTTFSTENDMEIKVEESLMMPAVFHTVASRTQLALEMYEVAKKLCSFCEGLVHDEHLQHQGWAAIMANLEDCSNSYQKLLFKFESIYSNYLQSIEDIKLKLTHLGTAVSVMAKIPLLECLTRHSYRECLGRLDSLPEHEDSEKAEMKRSTELVLSPDMPRTTNESLLTSFPKSVEHVSPDTADAESGKEIRESCQSTVHQQDETTIDTKDGDLPFFNVSLLDWINVQDRPNDVESLVRKCFDSMSRLDPRIIRPFIAECRQTIAKLDNQNMKAIKGLEDRLYALDQMIASCGRLVNEQKELAQGFLANQKRAENLKDASVLPDLCLSHANQLMIMLQNHRKLLDIKQKCTTAKQELANNLHVRLKWCCFVMLHADQDGEKLQALLRLVIELLERVKIVEALSTVPQMYCLAVVEVVRRKMFIKHYREWAGALVKDGKRLYEAEKSKRESFGKLFRKSFLRNRLFRGLDSWPPSFCTQKPRKFDCELPDISLKDLQFLQSFCPSEVQPFLRVPLLCDFEPLHQHVLALHNLVKAAQSLDEMSQTITDLLSEQKASVSQTSPQSASSPRMESTAGITTTTSPRTPPPLTVQDPLCPAVCPLEELSPDSIDAHTFDFETIPHPNIEQTIHQVSLDLDSLAESPESDFMSAVNEFVIEENLSSPNPISDPQSPEMMVESLYSSVINAIDSRRMQDTNVCGKEDFGDHTSLNVQLERCRVVAQDSHFSIQTIKEDLCHFRTFVQKEQCDFSNSLKCTAVEIRNIIEKVKCSLEITLKEKHQKELLSLKNEYEGKLDGLIKETEENENKIKKLKGELVCLEEVLQNKDNEFALVKHEKEAVICLQNEKDQKLLEMENIMHSQNCEIKELKQSREIVLEDLKKLHVENDEKLQLLRAELQSLEQSHLKELEDTLQVRHIQEFEKVMTDHRVSLEELKKENQQIINQIQESHAEIIQEKEKQLQELKLKVSDLSDTRCKLEVELALKEAETDEIKILLEESRAQQKETLKSLLEQETENLRTEISKLNQKIQDNNENYQVGLAELRTLMTIEKDQCISELISRHEEESNILKAELNKVTSLHNQAFEIEKNLKEQIIELQSKLDSELSALERQKDEKITQQEEKYEAIIQNLEKDRQKLVSSQEQDREQLIQKLNCEKDEAIQTALKEFKLEREVVEKELLEKVKHLENQIAKSPAIDSTRGDSSSLVAELQEKLQEEKAKFLEQLEEQEKRKNEEMQNVRTSLIAEQQTNFNTVLTREKMRKENIINDLSDKLKSTMQQQERDKDLIESLSEDRARLLEEKKKLEEEVSKLRSSSFVPSPYVATAPELYGACAPELPGESDRSAVETADEGRVDSAMETSMMSVQENIHMLSEEKQRIMLLERTLQLKEEENKRLNQRLMSQSMSSVSSRHSEKIAIRDFQVGDLVLIILDERHDNYVLFTVSPTLYFLHSESLPALDLKPGEGASGASRRPWVLGKVMEKEYCQAKKAQNRFKVPLGTKFYRVKAVSWNKKV
B3: FLAG-Atg16L1 full-length (FL) [mouse] / GFP-WIPI2b [not stated] (parent complex)
chain 1: B1 chain 2
chain 2: B1 chain 1
B4: GFP-WIPI2b [not stated] / FLAG-Atg16L1 full-length (FL) [mouse] (parent complex)
chain 1: B1 chain 1
chain 2: B1 chain 2

Variants of: B1
Test: GFP-Trap co-immunoprecipitation from mixed lysates, immunoblot quantification; parent: 2.5; read off a plot

Row | Variant | response
1 | chain 1 R108E, chain 1 R125E | ~0.03
2 | chain 1 R125E | ~1.6
3 | chain 1 R108E | ~0.04

Variants of: B2
Test: FLAG immunoprecipitation, immunoblot quantification; parent: 1; read off a plot

Row | Variant | ratio to parent
4 | chain 1 E241R | ~0.25
5 | chain 1 E230R | ~2.9
6 | chain 1 E226R | ~2.1
7 | chain 1 D212R | ~1.2
8 | chain 1 D238R | ~0.42
9 | chain 1 E235R | ~0.7
10 | chain 1 E208R | ~1.3
11 | chain 1 D237R | ~0.45
12 | chain 1 D239R | ~0.3

Variants of: B3
Test: GFP-Trap co-immunoprecipitation from mixed lysates, immunoblot quantification; parent: 1; read off a plot

Row | Variant | ratio to parent
13 | chain 1 D237R | ~1.7
14 | chain 1 D238R | ~1.3
15 | chain 1 D212R | ~0.63
16 | chain 1 D239R | ~0.8
17 | chain 1 E226R | ~0.02
18 | chain 1 E235R | ~1.2
19 | chain 1 E241R | ~1.1
20 | chain 1 E230R | ~0.02
21 | chain 1 E208R | ~0.67

Variants of: B4
Test: GFP-Trap co-immunoprecipitation from mixed lysates, immunoblot quantification; parent: 2.5; read off a plot

Row | Variant | response
22 | chain 2 E230R | ~0.62
23 | chain 2 E226R | ~0.33
24 | chain 2 E226R, chain 2 E230R | ~0.02
